From US20250188151A1, “C-JUN ANTAGONIST PEPTIDES” (The University of Bath, priority 2022, published 2025)
Bridge positions count the residues as written; N and C are the ends. Peptide text beside a SMILES is read from it.

T1: cJun bZIP (human, UniProt P05412 252-308, limits assumed)
T1 chain: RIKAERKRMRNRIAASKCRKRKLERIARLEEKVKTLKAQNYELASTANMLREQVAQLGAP


Assays:
cJun bZIP [1] = molecular target: cJun bZIP (Homo sapiens, UniProt P05412, S292Y); assay: CD spectra and thermal denaturation of peptide/cJun heterodimers; conditions: peptide (5 μM)/c-Jun (5 μM) heterodimer; Table 6
Experimental: Circular Dichroism (CD): An Applied Photophysics Chirascan was used for CD measurements, with a 200 μL sample in a 1 mm path length CD cell. Protein/DNA samples were suspended in 150 mM potassium phosphate, 150 mM potassium fluoride and 5 mM TCEP at pH 7.4 and were equilibrated for 30 minutes before measurement. […] These scans were averaged and converted to molar residue ellipticities (MRE). Thermal denaturation experiments were performed by measuring the ellipticity at 222 nm over a 1 to 90° C. gradient at 1° C. increments. Post-melt scans at 20° C. confirmed the transitions were reversible as they overlaid within 10% of the pre-melt scan.
Circular Dichroism (CD): An Applied Photophysics Chirascan was used for CD measurements, with a 200 μL sample in a 1 mm path length CD cell. Protein/DNA samples were suspended in 150 mM potassium phosphate, 150 mM potassium fluoride and 5 mM TCEP at pH 7.4 and were equilibrated for 30minutes before measurement. […] Thermal denaturation experiments were performed by measuring the ellipticity at 222 nm over a 1 to 90° C. gradient at 1° C. increments. Post-melt scans at 20° C. confirmed the transitions were reversible as they overlaid within 10% of the pre-melt scan.
Peptide helicity was determined by quantifying the CD signal at 222 nm of peptide only samples. Thermal denaturation experiments were then used to determine the Tm of peptide-c-Jun heterodimers, which was used as an approximate measure of target engagement. […] The same 60 amino acid c-Jun bZIP construct was used for all experiments, regardless of antagonist peptide length.

cJun bZIP [2] = molecular target: T1, cJun bZIP; assay: cell-based or functional assay
cJun bZIP [3] = molecular target: T1, cJun bZIP; assay: CD thermal denaturation, peptide 5 µM and c-Jun 5 µM

Row | Tm (° C.) (cJun bZIP [1]) | IC50 CD (cJun bZIP [2]) | Molecule | Tm (° C.) of peptide-c-Jun heterodimer (cJun bZIP [3])
1 | 53.8 ± 5.3 °C |  | Ac-EAEELVVEEDVLEEEIEQLEERNYALRKEIEDLQ-NH2 [Peptide 28] | 
2 | 58.9 ± 1.0 °C |  | CC[C@H](C)[C@H](NC(=O)[C@H](CCC(=O)O)NC(=O)[C@@H]1CC(=O)NCCCC[C@H](NC(=O)[C@H](CC(N)=O)NC(=O)[C@H](CCCCN)NC(=O)[C@H](CCC(=O)O)NC(=O)[C@H](CCC(=O)O)NC(=O)[C@H](CC(C)C)NC(=O)[C@H](CCC(N)=O)NC(=O)[C@H](CCC(=O)O)NC(=O)[C@@H](NC(=O)[C@H](CCC(=O)O)NC(=O)[C@H](CCC(=O)O)NC(=O)[C@H](CCC(=O)O)NC(=O)[C@H](CC(C)C)NC(=O)[C@@H](NC(=O)[C@H](CC(=O)O)NC(=O)[C@H](CCC(=O)O)NC(=O)[C@H](CCC(=O)O)NC(=O)[C@@H](NC(=O)[C@@H](NC(=O)[C@H](CC(C)C)NC(=O)[C@H](CCC(=O)O)NC(=O)[C@H](CCC(=O)O)NC(=O)[C@H](C)NC(=O)[C@H](CCC(=O)O)NC(C)=O)C(C)C)C(C)C)C(C)C)[C@@H](C)CC)C(=O)N[C@@H](C)C(=O)N[C@@H](CC(C)C)C(=O)N[C@@H](CCCCN)C(=O)N1)C(=O)N[C@@H](CCC(=O)O)C(=O)N[C@@H](CC(=O)O)C(=O)N[C@@H](CC(C)C)C(=O)N[C@@H](CCC(N)=O)C(=O)N[C@@H](CCCCN)C(=O)N[C@@H](CCC(N)=O)C(=O)N[C@@H](Cc1ccc(O)cc1)C(N)=O [Peptide 21] (Ac-EAEELVVEEDVLEEEIEQLEEKNKALKDEIEDLQKQY-NH2; lactam 24-28) | 
3 | 60.9 ± 3.6 °C |  | CC[C@H](C)[C@H](NC(=O)[C@H](CCC(=O)O)NC(=O)[C@H](CCCCN)NC(=O)[C@H](CCCNC(=N)N)NC(=O)[C@H](CC(C)C)NC(=O)[C@H](C)NC(=O)[C@H](Cc1ccc(O)cc1)NC(=O)[C@H](CC(N)=O)NC(=O)[C@H](CCCNC(=N)N)NC(=O)[C@@H]1CC(=O)NCCCC[C@H](NC(=O)[C@@H](NC(=O)[C@H](CCC(=O)O)NC(=O)[C@H](CCC(=O)O)NC(=O)[C@H](CCC(=O)O)NC(=O)[C@H](CC(C)C)NC(=O)[C@@H](NC(=O)[C@H](CC(=O)O)NC(=O)[C@H](CCC(=O)O)NC(=O)[C@H](CCC(=O)O)NC(=O)[C@@H](NC(=O)[C@@H](NC(=O)[C@H](CC(C)C)NC(=O)[C@H](CCC(=O)O)NC(=O)[C@H](CCC(=O)O)NC(=O)[C@H](C)NC(=O)[C@H](CCC(=O)O)NC(C)=O)C(C)C)C(C)C)C(C)C)[C@@H](C)CC)C(=O)N[C@@H](CCC(N)=O)C(=O)N[C@@H](CC(C)C)C(=O)N[C@@H](CCC(=O)O)C(=O)N1)C(=O)N[C@@H](CCC(=O)O)C(=O)N[C@@H](CC(=O)O)C(=O)N[C@@H](CC(C)C)C(=O)N[C@@H](CCC(N)=O)C(=O)N[C@@H](CCCCN)C(=O)N[C@@H](CCC(N)=O)C(N)=O [Peptide 19] (Ac-EAEELVVEEDVLEEEIKQLEDRNYALRKEIEDLQKQ-NH2; lactam 17-21 (inferred)) | 
4 | 55.5 ± 1.7 °C |  | Ac-EAEELVVEEDVLEEEIKQLEDRNYALRKEIEDLQKQ-NH2 [Peptide 18] | 
5 | 55.6 ± 1.2 °C |  | Ac-EAEELVVEEDVLEEEIEQLEERNYALRKEIKDLQDQ-NH2 [Peptide 22] | 
6 | 54.9 ± 1.2 °C |  | Ac-EAEELVVEEKVLEDEIEQLEERNYALRKEIEDLQKQ-NH2 [Peptide 16] | 
7 | 56.2 ± 1.3 °C |  | Ac-EAEELVVEEDVLEEEIEQLEEKNKALKDEIEDLQKQY-NH2 [Peptide 20] | 
8 | 57.5 ± 1.1 °C |  | Ac-EAKELVDEEDVLEEEIEQLEERNYALRKEIEDLQKQ-NH2 [Peptide 14] | 
9 | 56.5 ± 1.6 °C |  | Ac-KEAEDLVVEEDVLEEEIEQLEERNYALRKEIKDLQDQ-NH2 [Peptide 12] | 

Further lines, the molecule ahead of its results:

Row | Molecule | Tm (° C.) (cJun bZIP [1]) | IC50 CD (cJun bZIP [2]) | Tm (° C.) of peptide-c-Jun heterodimer (cJun bZIP [3])
10 | Ac-LVVEEDVLEEEIEQLEERNYALRKEIEDLQKQLEDL-NH2 [Peptide 9] | 62.1 ± 1.4 °C |  | 
11 | Ac-EDVLEEEIEQLEERNYALRKEIEDLQKQLEKLY-NH2 [Peptide 7] | 64.3 ± 1.3 °C |  | 
12 | Ac-EAEELVVEEDVLEEEIEQLEEKNKALKDEIEDLQKQY-NH2 (Synthetic, NΔ20 CΔ7; also called linear form of 20/21) [HingeW variant peptide 20] |  | 121 µM | 56.2 ° C.
13 | Ac-EAEELVVEEDVLEEEIEQLEEKNKALKDEIEDLQKQY-NH2 (lactam 24-28 (inferred), Synthetic, NΔ20 CΔ7; also called cyclised form of 20/21) [HingeW variant peptide 21] |  | 94.1 µM | 58.9 ° C.
14 | Ac-LVVEEDVLEEEIEQLEEKNKALKDEIEDLQKQLEKLY-NH2 (also: table prints a different, shorter sequence for 7/8, also called linear form of 7/8) [HingeW variant peptide 7] |  | 83.9 µM | 64.3 ° C.
15 | Ac-EAEELVVEEDVLEEEIEQLEEKNKALKDEIEDLY-NH2 [HingeW variant peptide 26] |  | 1560 µM | 
16 | Ac-LVVEEDVLEEEIEQLEERNYALRKEIEDLQKQLEDL-NH2 (Synthetic, NΔ24 CΔ3; also called linear form of 9/10) [HingeW variant peptide 9] |  | 94.6 µM | 62.1 ° C.
17 | Ac-KEAEDLVVEEDVLEEEIEQLEERNYALRKEIKDLQDQ-NH2 (Synthetic, NΔ19 CΔ7; also called linear form of 12/13) [HingeW variant peptide 12] |  | 115 µM | 56.5 ° C.
18 | Ac-EAEELVVEEDVLEEEIEQLEERNYALRKEIKDLQDQ-NH2 (Synthetic, NΔ20 CΔ7; also called linear form of 22/23) [HingeW peptide variant 22] |  | 101 µM | 55.6 ° C.
19 | Ac-EAEELVVEEKVLEDEIEQLEERNYALRKEIEDLQKQ-NH2 (Synthetic, NΔ20 CΔ7; also called linear form of 16/17) [HingeW variant peptide 16] |  | 114 µM | 54.9 ° C.
20 | Ac-EAEELVVEEDVLEEEIKQLEDRNYALRKEIEDLQKQ-NH2 (Synthetic, NΔ20 CΔ7; also called linear form of 18/19) [HingeW variant peptide 18] |  | 98.9 µM | 55.5 ° C.
21 | Ac-EAKELVDEEDVLEEEIEQLEERNYALRKEIEDLQKQ-NH2 (Synthetic, NΔ20 CΔ7; also called linear form of 14/15) [HingeW variant peptide 14] |  | 100 µM | 57.5 ° C.
22 | Ac-EAEELVVEEDVLEEEIKQLEDRNYALRKEIEDLQKQ-NH2 (lactam 17-21; SMILES CC[C@H](C)[C@H](NC(=O)[C@H](CCC(=O)O)NC(=O)[C@H](CCCCN)NC(=O)[C@H](CCCNC(=N)N)NC(=O)[C@H](CC(C)C)NC(=O)[C@H](C)NC(=O)[C@H](Cc1ccc(O)cc1)NC(=O)[C@H](CC(N)=O)NC(=O)[C@H](CCCNC(=N)N)NC(=O)[C@@H]1CC(=O)NCCCC[C@H](NC(=O)[C@@H](NC(=O)[C@H](CCC(=O)O)NC(=O)[C@H](CCC(=O)O)NC(=O)[C@H](CCC(=O)O)NC(=O)[C@H](CC(C)C)NC(=O)[C@@H](NC(=O)[C@H](CC(=O)O)NC(=O)[C@H](CCC(=O)O)NC(=O)[C@H](CCC(=O)O)NC(=O)[C@@H](NC(=O)[C@@H](NC(=O)[C@H](CC(C)C)NC(=O)[C@H](CCC(=O)O)NC(=O)[C@H](CCC(=O)O)NC(=O)[C@H](C)NC(=O)[C@H](CCC(=O)O)NC(C)=O)C(C)C)C(C)C)C(C)C)[C@@H](C)CC)C(=O)N[C@@H](CCC(N)=O)C(=O)N[C@@H](CC(C)C)C(=O)N[C@@H](CCC(=O)O)C(=O)N1)C(=O)N[C@@H](CCC(=O)O)C(=O)N[C@@H](CC(=O)O)C(=O)N[C@@H](CC(C)C)C(=O)N[C@@H](CCC(N)=O)C(=O)N[C@@H](CCCCN)C(=O)N[C@@H](CCC(N)=O)C(N)=O, Synthetic, NΔ20 CΔ7; also called cyclised form of 18/19) [HingeW variant peptide 19] |  | 94.4 µM | 60.9 ° C.
